Test results: patent US9045559B2, “Method for screening inhibitors of interleukin-32 (IL-32)” (Yeda Research and Development Co. Ltd, priority 2005, dated 2015)
Entries after “also recorded” stand apart in the source; their conditions may differ. Blank lines part the entries; values can stand above or below the molecule they belong to. No end group written: not given here.

Tests used:
[1] = target: T1, PR-3 (Homo sapiens, UniProt P24158); details: cited from earlier work; for kI for PR-3: Kam, 1992
T1 sequence (P24158 28-248): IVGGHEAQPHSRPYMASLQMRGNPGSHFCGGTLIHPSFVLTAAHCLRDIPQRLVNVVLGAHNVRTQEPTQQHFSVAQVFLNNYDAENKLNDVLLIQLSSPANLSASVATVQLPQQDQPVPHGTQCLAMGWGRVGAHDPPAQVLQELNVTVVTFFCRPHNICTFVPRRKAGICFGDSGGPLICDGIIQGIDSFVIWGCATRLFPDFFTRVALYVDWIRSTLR

[2] = target: T2, PR-3 (Homo sapiens, UniProt P24158); assay: Inhibition of the proteolytic activity of PR-3 by PMSF (cleavage of 125I-IL-32); assay type: biochemical; details: PR-3 pre-incubated with PMSF 1 mM, 10 min at 37° C.; then 1 and 5 min with 125I-IL-32
T2 construct: tissue Athens Research and Technology
T2 sequence (P24158 28-248 limits assumed): T1 sequence (P24158 28-248)
Experimental: Lanes 1-4 show ^125I-IL-32 following incubation with urinary PR-3 for 1 and 5 min., either not treated (Lanes 1 and 2) or pre-treated with PMSF (Lanes 3 and 4). Lanes 7-10 show ^125I-IL-32 following incubation with commercial PR-3 for 1 and 5 min., either not treated (Lanes 9 and 10) or pre-treated with PMSF (Lanes 7 and 8). Molecular weight markers (in kDa; lane 5) are indicated at the right side.
The experiment presented in FIG. 6 was performed as described in examples 5 and 6, except that PR-3 was pre-incubated with PMSF (final concentration of 1 mM, 10 min at 37° C.) prior to the incubation with ^125I-IL-32.

[3] = system: IL-32 responsive cells; assay: Biological activity of IL-32 and its proteolytic fragments (summary statement referring to Example 8); assay type: cell-based; details: for biological activity compared to the intact IL-32 protein: fragments generated by PR-3 cleavage
From the text: The cleavage of IL-32 and the consequent enhancement of the biological activity were both blocked by the action of PMSF.
For the purpose of the present description the expression “biological activity of IL-32” refers inter alia to at least one of the following biological properties:
(i) induction of MIP-2, (ii) induction of TNF, and (iii) induction of IL-8.

[4] = target: T3, ^125I-IL-32 (Homo sapiens, UniProt P24001); assay: Kinetics of degradation of 125I-IL-32 by urinary and commercial PR-3 (SDS-PAGE, autoradiography); assay type: biochemical
T3 construct: made in house; host or cells: E. coli (IL-32α)
T3 sequence (P24001 1-131 isoform P24001-4): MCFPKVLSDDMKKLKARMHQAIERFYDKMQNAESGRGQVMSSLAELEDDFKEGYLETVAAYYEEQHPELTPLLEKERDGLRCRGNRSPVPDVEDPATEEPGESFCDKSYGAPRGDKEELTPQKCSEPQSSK
T3 sequence (P24158 28-248 partner limits assumed): T1 sequence (P24158 28-248)
Experimental: After 1 minute of incubation with PR-3 the 20 kDa IL-32 (Lane 1) was cleaved into two cleavage products of 16 and 13 kDa (Lane 2). After 5 min. (Lane 3) the band corresponding to the intact IL-32 disappeared and the cleavage products remained stable for at least 60 min. (lanes 3, 4, 6, and 7). The resulting ^125I-IL-32 fragments of apparent MW of 20 kDa, 16 kDa and 13 kDa are indicated on the left side of the FIG.
The experiment was carried out essentially as indicated in FIG. 4 (Example 5) except, that incubation of PR-3 and IL32 was limited to up to 5 minutes and that both urinary and commercial PR-3 were used. Urinary (Lines 1-3) or commercial PR-3 (Lines 5-7) were incubated with ^125I-IL-32 for 0, 1 and 5 minutes.
Affinity purified urinary PR-3 (elution 3 fraction from Example 1, FIG. 1, 50 μl) was added to ^125I-IL-32 (250,000 cpm in 10 μl of gelatin solution) and incubated at 37° C. for 0, 1, 5, 15, 30, and 60 min. (FIG. 4). Degradation was stopped by the addition of SDS-PAGE sample buffer and by boiling for 10 min. Samples containing ^125I-IL-32 and PR-3 incubated at different periods of time (0-60 min.) were resolved on 12% SDS-PAGE under reducing conditions. The gel was dried and autoradiographed. The results summarized on FIG. 4 show the reduction in the 20 kDa band representing intact IL-32 (FIG. 4, lane 1) and the increase in the levels of a 16 and 13 kDa IL-32 cleavage products after a 1-minute incubation with PR-3 (FIG. 4, lane 2).
Urinary PR-3 or commercial PR-3 (Athens Research and Technology) were incubated with ^125I-IL-32 for 0, 1 and 5 min. Digestion was stopped by the addition of SDS-PAGE sample buffer and by boiling for 10 min. The samples were resolved on SDS-PAGE under reducing conditions. The gel was dried and autoradiographed. […] This difference is probably due to a different specific activity of urinary vs. commercial PR3.

[5] = system: human peripheral blood mononuclear cells (PBMC); assay: IL-8 secretion by human PBMC stimulated with IL-32 or PR-3-pretreated IL-32; assay type: cell-based; details: IL-32 20 or 200 ng/ml; PR-3 100 ng/ml, 5 min pretreatment
Experimental: Human PBMC cells were seeded in 96 well plates and incubated with IL-32 (20 or 200 ng/ml), IL-32 pretreated with PR-3 (100 ng/ml) for 5 min. or with PR-3 alone as the a control. The content of IL-8 into the cell culture medium was measured.
Similar enhancement of IL-32 activity by pre-treatment with PR-3 was shown in an experiment carried out with human peripheral blood mononuclear cells (PBMC). PBMC were prepared as previously described [Kim, 2005 #36] and seeded at a concentration of 5×10^5 cells per well in 96 well plates. The experimental setting of stimulation with IL-32 and IL-32 pre treated with PR-3 was identical to that described above for the mouse Raw cells. After stimulation of the human PBMC cells with either IL-32 or IL-32 pre treated with PR-3, the culture supernatants were collected to measure human IL-8 released by the cells.

[6] = system: Raw 264.7 cells; assay: MIP-2 secretion by mouse macrophage Raw 264.7 cells stimulated with IL-32 or PR-3-pretreated IL-32; assay type: cell-based; details: IL-32 20 or 200 ng/ml; PR-3 100 ng/ml, 5 min pretreatment; 16-20 h; polymyxin B 5 μg/ml
Experimental: Mouse macrophage Raw 264.7 cell line were seeded in a 96 well plate and incubated with IL-32 (20 or 200 ng/ml), IL-32 pretreated with PR-3 (100 ng/ml) for 5 min. or with PR-3 alone as the a control, and MIP-2 secreted into the cell culture medium was measured. […] PR-3 alone had no effect on the cells.
Mouse macrophage Raw 264.7 cell line (American Type Culture Collection, ATCC) was maintained in RP MI-1640 medium containing 10% FCS. Bioassays were performed in 96 well plates. Briefly, Raw cells (5×10^5/ml, 0.1 ml/per well) were seeded and cultured until cells adhered to the plate. The medium was removed and the cells were then stimulated with fresh medium (without FCS) containing different concentration of IL-32 or IL-32 pre-treated with PR-3 for 5 min at room temperature in the presence 5 μg/ml of the LPS blocker polymyxin B (Bedford Laboratories, Bedford, Ohio). The plates were incubated at 37° C. with 5% CO2 for 16-20 h and then the culture supernatants were collected to measure MIP-2 released by the cell culture.

Molecule: O=c1oc(Cl)c(Cl)c2ccccc12 [3,4-dichloroisocoumarin]
kI for PR-3 [1]: 2600 M⁻¹ s⁻¹

Molecule: Nc1ccc2c(Cl)c(OCCBr)oc(=O)c2c1 [7-amino-4-chloro-3-(2-bromoethoxy) isocoumarin]
kI for PR-3 [1]: 4700 M⁻¹ s⁻¹

Molecule: O=S(=O)(F)Cc1ccccc1 [PMSF, phenyl methyl sulfonyl fluoride]
cleavage of IL-32 by urinary and commercial PR-3 [2]: completely abolished; also recorded: completely blocked | enhancement of the biological activity of IL-32 following cleavage by PR-3 ([3]; action of PMSF): blocked

Molecule: Cc1ccc(C(=O)Nc2ccc(S(=O)(=O)O)c3cc(S(=O)(=O)O)cc(S(=O)(=O)O)c23)cc1NC(=O)c1cccc(NC(=O)Nc2cccc(C(=O)Nc3cc(C(=O)Nc4ccc(S(=O)(=O)O)c5cc(S(=O)(=O)O)cc(S(=O)(=O)O)c45)ccc3C)c2)c1 [Suramin]
Ki ([1]; Cadene, 1997): 500 nM

Molecule: Elafin: a human skin derived peptide that inhibits human leukocyte elastase (AQEPVKGPVSTKPGSCPIILIRCAMLNPPNRCLKDTDCPGIKKCCEGSCGMACFVPQ; ends and bridges not checked; cysteine pairing not given here; UniProt P19957 61-117, looked up)
IC50 ([1]; Wiedow, 1991, Zani, 2004): 9.5 nM | potency compared with antileukoprotease and eglin C ([1]; inhibition of PR-3): more than 100 fold

Molecule: MCFPKVLSDDMKKLKARMHQAIERFYDKMQNAESGRGQVMSSLAELEDDFKEGYLET (listed as Homo sapiens) [13 kDa (SEQ ID NO: 1), supposed N-terminal fragment of IL-32 generated by PR-3]
biological activity compared to the intact IL-32 protein [3]: enhanced biological activity

incubation time to complete disappearance of the 20 kDa intact IL-32 band ([4]; 37° C., cleaved into 16 and 13 kDa fragments): 5 min
B1: urinary PR-3: human Proteinase-3 (28-32 kDa) affinity purified from human urine on an IL-32 column, elution fraction 3 (protein)
chain: T1 sequence (P24158 28-248)

B2: commercial PR-3: commercially available human neutrophil derived PR-3 (Athens Research and Technology) (protein)
chain: T1 sequence (P24158 28-248)
potency of IL-32 cleavage, commercial vs urinary PR-3 ([4]; incubation 0, 1 and 5 min): more potent than the urinary PR-3; also recorded: more efficient than the urine-derived PR-3

digestion of IL-32 after overnight incubation with PR-3 ([4]; overnight at 4° C., no product higher than the 10 kDa marker): complete digestion
B3: PR-3: granule serine protease, source (urinary or commercial) not stated at these places (protein)
chain: AEIVGGHEAQPHSRPYMASLQMRGNPGSHFCGGTLIHPSFVLTAAHCLRDIPQRLVNVVLGAHNVRTQEPTQQHFSVAQVFLNNYDAENKLNDVLLIQLSSPANLSASVATVQLPQQDQPVPHGTQCLAMGWGRVGAHDPPAQVLQELNVTVVTFFCRPHNICTFVPRRKAGICFGDSGGPLICDGIIQGIDSFVIWGCATRLFPDFFTRVALYVDWIRSTLRRVEAKGRP
IL-8 secreted into the cell culture medium [5]: did not induce IL-8 | MIP-2 secreted into the cell culture medium [6]: no effect

B4: MNEI: a 42 kDa serpin superfamily member (protein, UniProt P30740 1-379, looked up)
Leukocyte elastase inhibitor: MEQLSSANTRFALDLFLALSENNPAGNIFISPFSISSAMAMVFLGTRGNTAAQLSKTFHFNTVEEVHSRFQSLNADINKRGASYILKLANRLYGEKTYNFLPEFLVSTQKTYGADLASVDFQHASEDARKTINQWVKGQTEGKIPELLASGMVDNMTKLVLVNAIYFKGNWKDKFMKEATTNAPFRLNKKDRKTVKMMYQKKKFAYGYIEDLKCRVLELPYQGEELSMVILLPDDIEDESTGLKKIEEQLTLEKLHEWTKPENLDFIEVNVSLPRFKLEESYTLNSDLARLGVQDLFNSSKADLSGMSGARDIFISKIVHKSFVEVNEEGTEAAAATAGIATFCMLMPEENFTADHPFLFFIRHNSSGSILFLGRFSSP
rate of PR-3 inhibition ([1]; Cooley, 2001): > 10^7 M^−1·s^−1

B5: VAAYYEEQHPELTPLLEKERDGLRCRGNRSPVPDVEDPATEEPGESFCDKSYGAPR GDKEELTPQKCSEPQSSK (protein, listed as Homo sapiens)
chain: VAAYYEEQHPELTPLLEKERDGLRCRGNRSPVPDVEDPATEEPGESFCDKSYGAPRGDKEELTPQKCSEPQSSK
notes: C-terminal fragment of IL-32 generated by PR-3
biological activity compared to the intact IL-32 protein [3]: enhanced biological activity

B6: IL-32: recombinant human IL-32α produced in E. coli, about 20 kDa (protein)
chain: T3 sequence (P24001 1-131 isoform P24001-4)
IL-8 secreted into the cell culture medium [5]: induced the secretion of IL-8 | MIP-2 secreted into the cell culture medium [6]: induced the secretion of MIP-2
